Assay results: article PMC10907274
Several values for one entry are separate records, joined by “and”; a condition that tells them apart may be missing. Equal values may be shown once.

Target: Dark (wild type), auto-inhibited monomer (D. melanogaster) (UniProt Q7KLI1)
Experiment: cryo-EM structure

Dark (wild type), auto-inhibited monomer (from UniProt Q7KLI1 1-1440) (natural protein)
stoichiometry N: 6 and 8
